Measurements: the nanobody polyreactivity screen of Harvey et al. (2022)

Assay: yeast display, Sf9 membrane polyspecificity reagent, FACS + sequencing; frameworks hold sequencing errors
Method in brief: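 Using colony PCR, genes from sorted yeast display clones were amplified, then sequenced on MiSeq at 2 × 250 and filtered by CDR length. The clones had been stained with 10% biotinylated, detergent-solubilized Sf9 membrane reagent for 1 hour at 4 °C and sorted by FACS into low and high (top ~1%) gates on anti-HA and streptavidin fluorescence. Polyreactivity labels come from the gate of origin.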

Row | Sequence | polyreactivity (PSR sort gate)
1 | QVQLVESGRGLVQAGCSLRLSCAASGSIFEWYAMGWSRQAPGKEMELVADITYNGGSTYYADSVKGRFTISRDNAKNTVYLQMNSLKPEDTAVYYCAADYFVQVPDYYYASEYGYWGQGTQVTVSS | low polyreactivity
2 | QVQLVESGGGLVQAGGSLLLSCAASGSIFGWYAMGWYRQAPGKERELVAAISSSGDSTYYADSVKGRFTISRDNAKNTVYLQMNSLKPEDTAVYYCAAEYWPSSPSAPGFDYDHWGQGTQVTVSS | low polyreactivity
3 | QVQLVESGGGLVQAGGSLRLSCAATGFTFGWNDMGWYRQARGKEMELVAAISGGGGSTYYADSVKGRFTISRDNAKNTVYLQMNSLKPEDTAVYYCATDSGTLIVKYDYWGQGTQVTVSS | low polyreactivity
4 | QVQLVESGGVLVQAGGSLRLSCAASGITFPDYDMGWYIHATGKERELVAAITYRSGSTYYADSVKGRFTISRDNAKNTVFLQMNCLKREDTAVYYCAADWRTKGYDSLGQGTQVTVSS | high polyreactivity
5 | QVQLVESGGGLVQAGGSLRLSCAASGRTFGYNAMGWYIQAPGKERELVAAINWSGASTYYADYVKGRFTISRDNAKNTVYLQMNSLKPEDTAVYYCAADYSYIYGFDYWGQGTQVTVSS | low polyreactivity
6 | QVQLVESGGGLVQAGGSLRLSCAASGRIFYYYAMGWYRQAPGKEREFVAAITGRGGSTYYADSVKGRFTISRDNAKNTVYLQMNSLKPEDTAVYYCNAGQYFEYYGWYSRYGYWGQGTQVTVSS | low polyreactivity
7 | QVQLVESGGGLVQAGGSLRLSCAASGRTFRFYAMGWYRQAPGKEREFVAAISRSVGSTYYADSVKGRFTISRDNAKNTVDLQMNSLKPEDTAVYYCNADYRSRYVEYDYWGQGTQVTVSS | high polyreactivity
8 | QVQLVESGGGLVQAGGCLRLSCAASGSIFDYYTMGWYREAPGNEREFVAGISDSGGSTTYADSVKGRFTISRDNAKNTVYLQMNSLKPEDTAVYYCNAEYVGWFYKYDYWGQGTQVTVSS | high polyreactivity
9 | QVQLVESGGGLVQAGGSLRLSCAASGFIFSVNTMGWYRQAPGKERELVAAISGSGGSTYYADSVKGRFTISRDNAKNTVYLQMNSLKPEDTAVYYCAAGVAWRFYSWGQGTQVTVSS | high polyreactivity
10 | QVQLVESGGGLVQARRSLRLSCAASGNIFWRNAMGWYRQAPGKERELVAAISRRAVSTYYADSVKGRFTISRDNAKNTVYLQMNSLKPEDTAVYYCAARLGGENDYWGQGTQVTVSS | high polyreactivity
11 | QVQLVESGGGLVQAGGSLRLSCAASGFTFRRYTMGWYRQAPGKERELVAAISGSGGSTYYADSVKGRFTISRDNAKNTVYLQMNSLKPEDTAVYYCNAPYLHYVIVFTDYSQRYDYWGQGTQVTVSS | high polyreactivity
12 | QVQLVESGGGLVQAGGSLRLSCAASGFTFDSNAMGWYRQAPGKERELVAAISSSGGSTYYADSVKGRFTISRDNAKNTVYLQMNSLKPEDTAVYYCNARRRTVPYRYDYWGQGTQVTVSS | high polyreactivity
13 | QVQLVESGGGLVQAGGSLRLSCAASGITFRGNAMGWYRQAPGKERELVAAISRRGGNTNYADSVKGRFTISRDNAKNTVYLQMNSLKPEDTAVYYCAADITTYRRGRYEYEYWGQGTQVTVSS | high polyreactivity
14 | QVQLVESGGGLVQAGGSLRLSCAASGFIFSYYTMGWYRQAPGKERELVAAISRNGGSTYYADSVKGRFTISRDNAKNTVYLQMNSLKPEDTAVYYCAKRVFNYQRYDYWGQGTQVSVSS | high polyreactivity
15 | QVQLVESGGGLVQAGGSLRLSCAASGLTFYYYAMGWYRQAPGKERELVAAITWSGASTYYADSVKGRFTISRDNAKNTVYLQMNSLKPEDTAVYYCNARVWGGVEFGYWGQGTQVTVSS | high polyreactivity
16 | QVQLVESGGGLVQAGGSLRLSCAASGRILPYYAMGWYRQEPGKERELVAAITGGGGSTYYADSVKGRFTISRDNAKNTVYLQMNSLKPEDTAVYYCAKPRGRASLALYRFSLYYYWGQGTQVTVSS | high polyreactivity
17 | QVQLVESGGGLVQAGGSLRLSCAASGSTFLYYAMGWYTQAPGKERELVAAITVRGGNTYYADSVKGRFTISRDNAKNTVYLQMNSLKPEDTAVYYCAARAYYSFRYDYWGQGTQVTVSS | high polyreactivity
18 | QVQLVESGGGLVQAGGSLRLSCPASGRTFKYYAMGCYRQSPGKESELVAAITSTGGSTYYADSVKGRFTISRDNAMNTVYLQMNSLKPEDTAVYYCNRYTQYRDRSDNHWGQGTQVTVSS | high polyreactivity
19 | QVQLVESGVGLVQARGSLRLSSASSGSILSTYAMGCYRQAPGKERELVASISSNAGSTYYADSVKGRFTISRDNAKNTVYLQMNSLKPEDTAVYYCNVKYKYYSPNYDYWGEGTQVTVSS | low polyreactivity
20 | QVQLVESGGGLVQAGGSLRLSCDASGNIFSDYTMGWYRQAPGKERELVAAISGDGGTTYYADSVKGRFTISRDNAKNTVYLQMNSLNPEDTAVYYCAADGYYDAYDQFFIVYYEYDYWGQGTQVTVSS | low polyreactivity

Row | Sequence | polyreactivity (PSR sort gate)
21 | QVQLVESGGGLVQAGGSLRLSCAASGFTFRDYAMGWYRQAPGKERELVAAITRSGGRTYYADSVKGRFTISRDNAKNTVYLQMNSLKPEDTAVYYCNALDYLYGGIYLEEDYWGQGTQVTVSS | low polyreactivity
22 | QVQLVESGGGLVQAGGSLRLSCAASGFTFSYYDMGWYRQAPGKERELVAAITQSGGSTYYADSVKGRFTISRDNAKNTVYLQMNSLKPEDTEVFYCAALTYRWSARDYWGQGTQVTVSS | high polyreactivity
23 | QVQLVESGGGLVQAGGSLRLSCAASGRTFWSNAMGWYRQAPGKERELVATISSGGGNTYYADSVKGRFTISRDNAKNTVYLQLNSLKPEDTAVYYCAATKYRWTYAASFGYWGQGTQVTVSS | high polyreactivity
24 | QVQVVESGGGLVQAGGSLRLSCAASGFTFSFNAMGSYRQAPWKERELVAAIDRGVSTYYADSVKGRFTISRDNAKNTVYLQMKSLKPEDTAVSYCAVEYWEPYDMDYWGQGTQVTVSS | high polyreactivity
25 | QVQVVESGGGLVQAGGSLRLSCAASGITFWGYAMGWYRQAPGKERELVAAITRTGSTYYADSVKGRFTISRDNAKNTVYLQMNSLKPEDTALYYCAAYTPNASTYRRKSSKKVYYWGQGTQVTVSS | high polyreactivity
26 | QVQLVESGGGLVQAGGSLRLSCAASGSIFSRYTMGWYRQATGKERELVAAITSSGGSTYYADSVKGRFTISRDNAKNTVYLQMNSLKPEDTAVYYCNAVRRQWYWTAWFSARGYGYWGQGTQVTVSS | high polyreactivity
27 | QVLLQESGGLVQAGCSLRMSCAASGSISTALSMGWYRQAPGKERELVSTISDGASTNYADSVKGRFTISRVNAKNTVYLQMNSLKPEDTAVYYCARYYFGNFGWGQGTQVTVSS | high polyreactivity
28 | QVQLVESGGGLVQAGGSLRLSCAASGRTFGTNAMGWYRQAPGKERELVAAIRRGGSRTYNADSVKGRFTISRDIAKNTVYLQMNSLKPEDTAVYYCAVDYYPYEVSYVRMDYWGQCTQVTVSS | low polyreactivity
29 | QVQLVESGGGLGQAGGSLRLSCAASGITFYPNGMGWYRPAPGKEREFVAAITSSGGSTYYADSVKGRFTISRDNAKNTVYLQMNSLKPEDTAVYYCAAQYYPISYYGYGYWGQGTQVTVSS | low polyreactivity
30 | QVQLVESGGGLVQAGGSLRLICAASGSIFDRYAMGWYRPAPGKDRELVAAITGSGGSTYYADSVKGRFRISRDNAKNTVYLQMNSLKPEDTAVYYGNARARGAYVRYGYWGQGTQVTVSS | high polyreactivity
31 | QVQLVESGGGLVQAGGSLRLSCAASGRIFYYYAMGRYRQAPGKERELVAAITQSGGSTYYADSVKGRFTISRDNAKNTVYLQMNSLKPEDTAVYYCNAVLSSNTKWRYPGDYWGQGTQVTVSS | low polyreactivity
32 | QVQLVESGGGLVQAGGSLRLSCAASGSIFADNAMGWYRQAPGKEMELVADISWSGGRTYYADSVKGRFTISRDNAKNTVYLQMNSLKPEDTAVYYCAARYRDYRAGFDYWGQGTQLTVSS | high polyreactivity
33 | QVQLVESGGGLVQAGGSLRLSCAASGRTFWWYAMGWYRQAPGKERELVAAITWSTGITFYADSVKGRFTISRDNAKNTVYLQMNILKPEDTAVYYCAADTGTFFGGFDYWGQGTQVTVSS | high polyreactivity
34 | QVQLVESGGGLFQAGGSLRLSCAASGSTFTTNAMGWYRQAPGKERELVAAITKRGGTTSYADSVKGRFTISRDNAKNSVYLLMNSLKPADTAVYYCAADVEVSWAYDAWWYGGGYYWGQCTQVTVSS | high polyreactivity
35 | QVQLVESGGGLLQAGGSLRLSCAASGIIFRWYAMGWYSQAPGKERELVATITRSGGSTYYADSVKGRFTISRDNAKKTVYLLMKSLKPEDTAVFYCATGRYPSGRPTRNYDSVYWGHGTQVTVSS | high polyreactivity
36 | QVQLVESGGGLVQAGGSLRLSCAASGFIFSGYAMGWYRQAPGKEREFVAAISWSGSSTYYADSVKGRFTISRDNAKNTVYLQMNSLKPEDTALYYCNAVRQHPPRYSRYDYWGQGTQVTVSS | high polyreactivity
37 | QVQLVESGGGLVQAGGSLRLSCAAYGLTFYGYGMGWYRQAPGKERELVASITSGGNTYYADSVKGRFTISRDNAKNTVYLQMNSLKPEDTAVYYCAVTAIALYYSSGYYWGQGTQVTVSS | low polyreactivity
38 | QVQLVESGGGLVQAGGSLRLSCAASGFIFYDYAMGWYRQAPGKERELVAAISSGGSTNYADSVKGRFTISRDNAKNTVYLQMNSLIPEDTEVYYCAADDRSYATWKRDYDYWGQGTQVTVSS | low polyreactivity
39 | QVQLVESGGGLVQAGGSLRLSCAASGSTLNYYAMGWYRQAPGKEWELVAAITWSGGSTSYADSVKGRFTISRDNAKNTVYLQMNSLKPEDTAVYYCATDFPTVQLYDTDWLSSDMGYWGQGTQVTVSS | low polyreactivity
40 | QVQLVESGGGLVQAGGSLRLSCAASGGTFSTSAMGWYRQAPGKERELVAAISLSGVRTYYADSVKGRFTISRDNAKNTVYLQMNSLKAEVTAVDYCATRPYSPWRLYYWGQGTQVTGSS | high polyreactivity
